This note sets out measurements from patent publication US20030113867A1.

The target in assay [1] is prokineticin receptor(s) of guinea pig ileal smooth muscle (ileal membrane preparation / ileum longitudinal muscle) (guinea pig). The assay is described as follows: cell-based or functional assay.
The target of assay [2] is prokineticin receptor expressed endogenously on M2A7 melanoma cells (ATCC CRL-2500). The assay is described as follows: cell-based or functional assay.
Assay [3] has the same target. The experiment in a line: binding of iodinated prokineticin 1 to M2A7 melanoma cells.
The target in assay [4] is prokineticin receptor(s) of guinea pig ileal smooth muscle (ileal membrane preparation / ileum longitudinal muscle) (guinea pig). The assay is described as follows: saturation binding of 125I-prokineticin 1 to guinea pig ileal membranes, low-affinity site, n=3.
For assay [5] the target is unchanged. The assay is described as follows: saturation binding of 125I-prokineticin 1 to guinea pig ileal membranes, high-affinity site, n=3.
Assay [6] has the same target. The experiment in a line: saturation binding of 125I-prokineticin 1 to guinea pig ileal membranes, Scatchard analysis, two-site model, low-affinity site, n=3.
The target is the same in assay [7]. The assay is described as follows: saturation binding of 125I-prokineticin 1 to guinea pig ileal membranes, Scatchard analysis, two-site model, high-affinity site, n=3.
The target is the same in assay [8]. The assay is described as follows: displacement of 125I-prokineticin 1 (20 pM) from guinea pig ileal membranes by unlabeled prokineticin 1, two-site model, low-affinity site. On the technique in general: Loss of bound radioactivity is the signal in a displacement assay; it reports binding, not function.
Assay [9] has the same target. The assay is described as follows: displacement of 125I-prokineticin 1 (20 pM) from guinea pig ileal membranes by unlabeled prokineticin 1, two-site model, high-affinity site.
Assay [10] has the same target. The experiment in a line: competition radioligand binding on guinea pig ileal membranes, filtration; unlabeled prokineticin 1 varied against 125I-prokineticin 1 (20 pM).
The target is the same in assay [11]. The assay is described as follows: displacement of 125I-prokineticin 1 (20 pM) from guinea pig ileal membranes by unlabeled prokineticin 2, low-affinity site.
For assay [12] the target is unchanged. The experiment in a line: displacement of 125I-prokineticin 1 (20 pM) from guinea pig ileal membranes by unlabeled prokineticin 2, high-affinity site.
Assay [13] has the same target. The experiment in a line: competition radioligand binding on guinea pig ileal membranes, filtration; unlabeled prokineticin 2 varied against 125I-prokineticin 1 (20 pM).

B1: chimeric prokineticin 21 (exons 1 and 2 of prokineticin 2, exon 3 of prokineticin 1) (ligand)
chain: AVITGACDKDSQCGGGMCCAVSIWVKSIRICTPMGKLGDSCHPLTRKVPFFRKRKHHTCPCLPNLLCSRFPDGRYRCSMDLKNINF
In assay [1], B1 gave an EC50 of ileal contraction relative to prokineticin 1 or prokineticin 2 of 8 fold and a time constant to midway contraction of ileal strips of 40 min.

B2: recombinant refolded human prokineticin 1 with C-terminal 6xHis-tag (ligand)
chain: AVITGACERDVQCGAGTCCAISLWLRGLRMCTPLGREGEECHPGSHKVPFFRKRKHHTCPCLPNLLCSRFPDGRYRCSMDLKNINFHHHHHH
modifications: 125I-iodinated by the iodogen method where used as the labeled ligand; plain where used as unlabeled competitor; five disulfide bonds
For orientation: Kd means a measure of binding affinity in units of concentration. Low values mean tighter binding, high ones weaker binding. Broadly, the Ki is the dissociation constant of the complex between target and ligand, obtained from inhibition or displacement. On to B2, for which the calcium mobilization in M2A7 melanoma cells (FLIPR), EC50 in [2] turned out to be 12 nM. The molecule also yielded a contraction of guinea-pig ileum longitudinal muscle, ED50 in [1] of 0.46 nM. In assay [1], this molecule showed a time constant to midway contraction of ileal strips of 15 min. In addition, the receptor level (fmole/mg protein) in assay [3] was 150. Moreover, the values for the Bmax (fmol/mg of protein) in assay [4] and in assay [5] were 26.4 and 7.8, respectively. Moreover, the Kd was found to be 0.227 nM in [6] and 0.005 nM in assay [7]. The inhibition constant (Ki) in [8] stood at 1.5 nM; in assay [9] it was 0.008 nM. Further, the IC50 (read off the curve) in assay [10] is 5 nM.

B3: chimeric prokineticin 12 (exons 1 and 2 of prokineticin 1, exon 3 of prokineticin 2) (ligand)
chain: AVITGACERDVQCGAGTCCAISLWLRGLRMCTPLGREGEECHPGSHKVPFFGRRMHHTCPCLPGLACLRTSFNRFICLAQK
Molecule B3 displayed a time constant to midway contraction of ileal strips in assay [1] of 40 min.

B4: recombinant refolded human prokineticin 2 with C-terminal 6xHis-tag (ligand)
chain: AVITGACDKDSQCGGGMCCAVSIWVKSIRICTPMGKLGDSCHPLTRKVPFFGRRMHHTCPCLPGLACLRTSFNRFICLAQKHHHHHH
Consider B4, for which the calcium mobilization in M2A7 melanoma cells (FLIPR), EC50 in assay [2] is 21 nM. The molecule further returned a contraction of guinea-pig ileum longitudinal muscle, ED50 in assay [1] of 0.9 nM. Also, the time constant to midway contraction of ileal strips in assay [1] is 15 min. The Ki in [11] was found to be 1.22 nM; in assay [12], 0.0042 nM. The IC50 (read off the curve) in assay [13] is 4 nM.
